This data set concerns the target T1, caspase-3 substrate CGKRKGDEVDSG
T1 chain: CGKRKGDEVDSG

B1: caspase-3 (protein)
chain: SGISLDNSYKMDYPEMGLCIIINNKNFHKSTGMTSRSGTDVDAANLRETFRNLKYEVRNKNDLTREEIVELMRDVSKEDHSKRSSFVCVLLSHGEEGIIFGTNGPVDLKKITNFFRGDRCRSLTGKPKLFIIQACRGTELDCGIETDSGVDDDMACHKIPVEADFLYAYSTAPGYYSWRNSKDGSWFIQSLCAMLKQYADKLEFMHILTRVNRKVATEFESFSFDATFHAKKQIPCIVSMLTKELYFYH
On to B1, for which the “cleavage of the immobilised substrate, read by SAMDI mass spectrometry” value is on record as “we also observed a peak corresponding to the caspase-3 product at 144 Da lower than the initial substrate mass”.

These data come from patent US20210325403.
